Assay [1] addresses T1, human ROR1 protein (human, UniProt Q01973 30-403, limits assumed).
T1 construct: Recombinant antigen of the SPR assay; also called ROR1 (SPR ligand)
As to the kind of experiment: SPR (Biacore 8K); human ROR1 amine-coupled at 0.50 ug/mL as ligand, antibody as analyte. A general note: SPR reads the build-up and loss of mass on a sensor chip optically.

Assay [2] addresses T1, human ROR1 protein. In words: SPR (Biacore 8K); human ROR1 amine-coupled at 2.50 ug/mL as ligand, antibody as analyte.
In assay [3] the target is T1, human ROR1 protein. In words: SPR (Biacore 8K); human ROR1 amine-coupled at 0.10 ug/mL as ligand, antibody as analyte.
Assay [4] has as its target T1, human ROR1 protein. In words: SPR (Biacore 8K); human ROR1 amine-coupled at 62.50 ug/mL as ligand, antibody as analyte.
In assay [5] the target is T1, human ROR1 protein. As to the kind of experiment: SPR (Biacore 8K); human ROR1 amine-coupled at 0.05 ug/mL as ligand, antibody as analyte.
The target in assay [6] is human ROR1 (on CHO-K1/ROR1 cells and ROR1 tumour cell lines) (human) (UniProt Q01973). As to the kind of experiment: cell-based or functional assay.
Assay [7] addresses T1, human ROR1 protein. As to the kind of experiment: SPR (Biacore 8K); human ROR1 amine-coupled at 12.50 ug/mL as ligand, antibody as analyte.
The target of assay [8] is T2, human CD3 (on Jurkat cells) (human, UniProt P07766 23-207; P09693 23-182; P04234 22-171).
T2 construct: whole, on cells
As to the kind of experiment: flow cytometry on Jurkat cells expressing human CD3.

For assay [9], the target named is T3, human ROR1 (on CHO-K1/ROR1 cells and ROR1 tumour cell lines) (human, UniProt Q01973 30-937).
T3 construct: whole, on cells; also called receptor tyrosine kinase-like orphan receptor 1
As to the kind of experiment: flow cytometry on CHO-K1/ROR1 cells overexpressing human ROR1. A general note: Flow cytometry measures light scatter and fluorescence of single cells or particles in a stream.

Sequence of human ROR1 (on CHO-K1/ROR1 cells and ROR1 tumour cell lines) (human) (Q01973 30-937): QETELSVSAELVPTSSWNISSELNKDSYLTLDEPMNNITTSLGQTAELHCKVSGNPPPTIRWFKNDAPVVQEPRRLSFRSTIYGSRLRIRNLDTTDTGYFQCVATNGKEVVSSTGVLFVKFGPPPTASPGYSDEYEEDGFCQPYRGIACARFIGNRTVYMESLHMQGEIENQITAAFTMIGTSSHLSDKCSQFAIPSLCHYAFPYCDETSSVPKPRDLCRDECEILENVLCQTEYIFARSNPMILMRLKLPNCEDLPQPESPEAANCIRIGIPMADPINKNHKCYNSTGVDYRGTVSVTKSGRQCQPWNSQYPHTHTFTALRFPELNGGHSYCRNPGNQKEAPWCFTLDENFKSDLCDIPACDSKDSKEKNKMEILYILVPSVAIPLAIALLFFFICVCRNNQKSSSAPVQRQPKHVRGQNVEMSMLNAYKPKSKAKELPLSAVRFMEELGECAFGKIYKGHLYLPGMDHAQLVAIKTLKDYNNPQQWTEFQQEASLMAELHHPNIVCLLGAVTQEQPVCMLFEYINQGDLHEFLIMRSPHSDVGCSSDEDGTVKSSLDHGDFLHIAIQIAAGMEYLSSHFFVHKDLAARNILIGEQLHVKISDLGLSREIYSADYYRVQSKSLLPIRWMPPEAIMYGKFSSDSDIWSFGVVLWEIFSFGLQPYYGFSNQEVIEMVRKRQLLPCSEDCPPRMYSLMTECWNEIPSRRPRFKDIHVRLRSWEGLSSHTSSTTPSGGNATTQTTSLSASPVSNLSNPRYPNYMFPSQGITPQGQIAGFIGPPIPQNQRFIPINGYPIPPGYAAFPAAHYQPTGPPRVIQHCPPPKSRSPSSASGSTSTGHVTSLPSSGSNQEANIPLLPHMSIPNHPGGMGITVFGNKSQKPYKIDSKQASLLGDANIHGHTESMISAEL
T2 sequence (P07766 23-207, chain 1 of 3): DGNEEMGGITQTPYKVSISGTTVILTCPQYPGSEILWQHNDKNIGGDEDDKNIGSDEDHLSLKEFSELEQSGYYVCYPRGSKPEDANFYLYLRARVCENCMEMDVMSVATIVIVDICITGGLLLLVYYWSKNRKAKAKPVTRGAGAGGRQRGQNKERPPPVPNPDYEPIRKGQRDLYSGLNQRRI
T2 sequence (P09693 23-182, chain 2 of 3): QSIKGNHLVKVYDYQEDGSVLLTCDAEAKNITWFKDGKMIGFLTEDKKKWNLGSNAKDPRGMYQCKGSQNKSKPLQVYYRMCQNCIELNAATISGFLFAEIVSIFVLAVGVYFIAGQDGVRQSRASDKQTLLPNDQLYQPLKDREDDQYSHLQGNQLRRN
T2 sequence (P04234 22-171, chain 3 of 3): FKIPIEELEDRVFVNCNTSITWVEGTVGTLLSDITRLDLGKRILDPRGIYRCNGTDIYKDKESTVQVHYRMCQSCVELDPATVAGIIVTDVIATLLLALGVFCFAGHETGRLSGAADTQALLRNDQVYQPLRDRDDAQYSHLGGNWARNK
T1 sequence (Q01973 30-403 limits assumed): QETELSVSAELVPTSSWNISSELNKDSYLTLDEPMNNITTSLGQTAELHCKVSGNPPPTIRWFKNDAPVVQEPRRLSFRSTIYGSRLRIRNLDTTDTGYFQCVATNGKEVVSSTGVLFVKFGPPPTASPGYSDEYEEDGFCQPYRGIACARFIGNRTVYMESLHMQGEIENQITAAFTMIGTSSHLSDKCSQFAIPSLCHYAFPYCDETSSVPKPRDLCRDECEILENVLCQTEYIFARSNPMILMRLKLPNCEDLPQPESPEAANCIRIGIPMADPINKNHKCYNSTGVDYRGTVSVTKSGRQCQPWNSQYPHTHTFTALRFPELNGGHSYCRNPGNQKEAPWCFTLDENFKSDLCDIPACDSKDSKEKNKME
T3 sequence (Q01973 30-937): as the sequence (Q01973 30-937) above

Usually Kd stands for the constant that tells how readily two partners part at equilibrium. By koff is commonly meant the rate constant with which the complex falls apart. The term kon denotes the rate constant with which the complex forms. Lower therefore signals slow association. For the molecule NVG-111 (bispecific antibody), the Kd in [1] is 1.92 nM; in [2], 1.64 nM; in [3], 1.82 nM; in assay [4], 1.71 nM; in [5], 2.59 nM; in [7] it was 1.49 nM. The koff is 0.00122 s⁻¹ in assay [1]; 0.00118 s⁻¹ in [2]; 0.00113 s⁻¹ in [3]; 0.00101 s⁻¹ in assay [4]; 0.00138 s⁻¹ in [5]; 0.00109 s⁻¹ in assay [7]. In addition, the kon is 632000 M⁻¹ s⁻¹ in assay [1]; 723000 M⁻¹ s⁻¹ in [2]; 622000 M⁻¹ s⁻¹ in [3]; 593000 M⁻¹ s⁻¹ in assay [4]; 532000 M⁻¹ s⁻¹ in [5]; 733000 M⁻¹ s⁻¹ in [7]. The molecule further came in with an EC50 of T cell activation based on reporter gene (luciferase), target cells A375 in [6] of 0.0329 nM. The EC50 of T cell activation based on reporter gene (luciferase), target cells Jeko-1 in assay [6] came to 0.0358 nM. In [6], the EC50 of T cell activation based on reporter gene (luciferase), target cells MDA-MB-231 stood at 0.01 nM.

B1: BsAb-1 (bispecific antibody, human IgG1, lambda)
chain: EVQLVESGGGLVQPGGSLRLSCAASGFISRFYAMGWYRQAPGKQRELVARISSMGWTYYADSVKGRFTISIDNSKNTLYLQMNSLRAEDTAVYYCNARNLWGQGTLVTVSSDKTHTCPPCPAPESTRGPSVFLFPPKPKDTLMISRTPEVTCVVVDVSHEDPEVKFNWYVDGVEVHNAKTKPREEQYNSTYRVVSVLTVLHQDWLNGKEYKCKVSNKALPAPIEKTISKAKGQPREPQVCTLPPSRDELTKNQVSLSCAVKGFYPSDIAVEWESNGQPENNYKTTPPVLDSDGSFFLVSKLTVDKSRWQQGNVFSCSVMHEALHNHYTQKSLSLSPGK
heavy: EVQLVESGGGLVQPGRSLRLSCAASGFTFNTYAMNWVRQAPGKGLEWVARIRSKYNNYATYYADSVKDRFTISRDDSKSIAYLQMNSLKTEDTAVYYCVRHGNFGNSYVSWFAYWGQGTLVTVSSASTKGPSVFPLAPSSKSTSGGTAALGCLVKDYFPEPVTVSWNSGALTSGVHTFPAVLQSSGLYSLSSVVTVPSSSLGTQTYICNVNHKPSNTKVDKKVEPKSCDKTHTCPPCPAPESTRGPSVFLFPPKPKDTLMISRTPEVTCVVVDVSHEDPEVKFNWYVDGVEVHNAKTKPREEQYNSTYRVVSVLTVLHQDWLNGKEYKCKVSNKALPAPIEKTISKAKGQPREPQVYTLPPCRDELTKNQVSLWCLVKGFYPSDIAVEWESNGQPENNYKTTPPVLDSDGSFFLYSKLTVDKSRWQQGNVFSCSVMHEALHNHYTQKSLSLSPGK
light: QTVVTQEPSLTVSPGGTVTLTCRSSTGAVTTSNYANWVQQKPGQAPRGLIGGTNKRAPGVPARFSGSLLGGKAALTLSGVQPEDEAEYFCALWYSNLWVFGGGTKLTVLGQPKAAPSVTLFPPSSEELQANKATLVCLISDFYPGAVTVAWKADSSPVKAGVETTTPSKQSNNKYAASSYLSLTPEQWKSHRSYSCQVTHEGSTVEKTVAPTECS
notes: human IgG1 Fc with L234S/L235T/G236R; also called BsAb-01
As a reminder, the EC50 is the concentration at which the effect is half-maximal. The low end stands for greater potency, the high end for weaker potency. As to B1, the EC50 in assay [8] was determined as 0.384 nM; in assay [9] it was 0.287 nM.

B2: BsAb-7 (bispecific antibody, human IgG1, lambda)
chain: QVQLVESGGGVVQPGGSLRLSCAASGFVLRVNTVSWYRQAPGKQRELVALITSESNEYYDDSVKGRFTISRDNAKNTIYLHMNSLKPEDTGVYFCNFITTWGQGTQVTVSSGGGGSGGGGSGGGGSQVQLVESGGGVVQPGGSLRLSCAASGFVLRVNTVSWYRQAPGKQRELVALITSESNEYYDDSVKGRFTISRDNAKNTIYLHMNSLKPEDTGVYFCNFITTWGQGTQVTVSSDKTHTCPPCPAPESTRGPSVFLFPPKPKDTLMISRTPEVTCVVVDVSHEDPEVKFNWYVDGVEVHNAKTKPREEQYNSTYRVVSVLTVLHQDWLNGKEYKCKVSNKALPAPIEKTISKAKGQPREPQVCTLPPSRDELTKNQVSLSCAVKGFYPSDIAVEWESNGQPENNYKTTPPVLDSDGSFFLVSKLTVDKSRWQQGNVFSCSVMHEALHNHYTQKSLSLSPGK
heavy: B1 heavy
light: B1 light
notes: also called BsAb-07
Consider B2, for which the EC50 in [8] amounted to 0.526 nM.

B3: BsAb-15 (bispecific antibody, human IgG1, lambda)
chain: EVQLVESGGGLVQPGGSLRLSCAASGRSFSSFQMGWFRQAPGKEREFVAASGWSGGPTYYWDSVIGRFTISTDNSKNTLYLQMNSLRAEDTAVYYCYEDRVLSGRHVRYWGQGTLVTVSSDKTHTCPPCPAPESTRGPSVFLFPPKPKDTLMISRTPEVTCVVVDVSHEDPEVKFNWYVDGVEVHNAKTKPREEQYNSTYRVVSVLTVLHQDWLNGKEYKCKVSNKALPAPIEKTISKAKGQPREPQVCTLPPSRDELTKNQVSLSCAVKGFYPSDIAVEWESNGQPENNYKTTPPVLDSDGSFFLVSKLTVDKSRWQQGNVFSCSVMHEALHNHYTQKSLSLSPGK
heavy: B1 heavy
light: B1 light
Molecule B3 showed a half-maximal effective concentration (EC50) in assay [8] of 0.743 nM.

B4: BsAb-11 (bispecific antibody, human IgG1, lambda)
chain: QVQLVESGGGVVQPGGSLRLSCAASGFVLRVNTVSWYRQAPGKQRELVALITSESNEYYDDSVKGRFTISRDNAKNTIYLHMNSLKPEDTGVYFCNFITTWGQGTQVTVSSDKTHTCPPCPAPESTRGPSVFLFPPKPKDTLMISRTPEVTCVVVDVSHEDPEVKFNWYVDGVEVHNAKTKPREEQYNSTYRVVSVLTVLHQDWLNGKEYKCKVSNKALPAPIEKTISKAKGQPREPQVCTLPPSRDELTKNQVSLSCAVKGFYPSDIAVEWESNGQPENNYKTTPPVLDSDGSFFLVSKLTVDKSRWQQGNVFSCSVMHEALHNHYTQKSLSLSPGK
heavy: QVQLVESGGGVVQPGGSLRLSCAASGFVLRVNTVSWYRQAPGKQRELVALITSESNEYYDDSVKGRFTISRDNAKNTIYLHMNSLKPEDTGVYFCNFITTWGQGTQVTVSSGGGGSGGGGSGGGGSEVQLVESGGGLVQPGRSLRLSCAASGFTFNTYAMNWVRQAPGKGLEWVARIRSKYNNYATYYADSVKDRFTISRDDSKSIAYLQMNSLKTEDTAVYYCVRHGNFGNSYVSWFAYWGQGTLVTVSSASTKGPSVFPLAPSSKSTSGGTAALGCLVKDYFPEPVTVSWNSGALTSGVHTFPAVLQSSGLYSLSSVVTVPSSSLGTQTYICNVNHKPSNTKVDKKVEPKSCDKTHTCPPCPAPESTRGPSVFLFPPKPKDTLMISRTPEVTCVVVDVSHEDPEVKFNWYVDGVEVHNAKTKPREEQYNSTYRVVSVLTVLHQDWLNGKEYKCKVSNKALPAPIEKTISKAKGQPREPQVYTLPPCRDELTKNQVSLWCLVKGFYPSDIAVEWESNGQPENNYKTTPPVLDSDGSFFLYSKLTVDKSRWQQGNVFSCSVMHEALHNHYTQKSLSLSPGK
light: B1 light
With B4, the EC50 in assay [8] amounted to 4 nM.

B5: BsAb-6 (bispecific antibody, human IgG1, lambda)
chain: EVQLVESGGGLVQPGGSLRLSCAASYFISRFYAVGWYRQAPGKQRELVARISSGGWTYYADSVKGRFTISIDNSKNTLYLQMNSLRAEDTAVYYCNARNLWGQGTLVTVSSGGGGSGGGGSGGGGSEVQLVESGGGLVQPGGSLRLSCAASYFISRFYAVGWYRQAPGKQRELVARISSGGWTYYADSVKGRFTISIDNSKNTLYLQMNSLRAEDTAVYYCNARNLWGQGTLVTVSSDKTHTCPPCPAPESTRGPSVFLFPPKPKDTLMISRTPEVTCVVVDVSHEDPEVKFNWYVDGVEVHNAKTKPREEQYNSTYRVVSVLTVLHQDWLNGKEYKCKVSNKALPAPIEKTISKAKGQPREPQVCTLPPSRDELTKNQVSLSCAVKGFYPSDIAVEWESNGQPENNYKTTPPVLDSDGSFFLVSKLTVDKSRWQQGNVFSCSVMHEALHNHYTQKSLSLSPGK
heavy: B1 heavy
light: B1 light
notes: also called BsAb-06
As for B5, in assay [8], the EC50 was 1.18 nM.

These data come from patent publication EP4782541A1 (Nanjing Probio Biotech Co., Ltd., dated 2026).
